Measured values published in IntAct's records for PubMed 35512704.

B1: Speckle-type POZ protein (Homo sapiens), O43791 (parent)
chain: MSRVPSPPPPAEMSSGPVAESWCYTQIKVVKFSYMWTINNFSFCREEMGEVIKSSTFSSGANDKLKWCLRVNPKGLDEESKDYLSLYLLLVSCPKSEVRAKFKFSILNAKGEETKAMESQRAYRFVQGKDWGFKKFIRRDFLLDEANGLLPDDKLTLFCEVSVVQDSVNISGQNTMNMVKVPECRLADELGGLWENSRFTDCCLCVAGQEFQAHKAILAARSPVFSAMFEHEMEESKKNRVEINDVEPEVFKEMMCFIYTGKAPNLDKMADDLLAAADKYALERLKVMCEDALCSNLSVENAAEILILADLHSADQLKTQAVDFINYHASDVLETSGWKSMVVSHPHLVAEAYRSLASAQCPFLGPPRKRLKQS
partner: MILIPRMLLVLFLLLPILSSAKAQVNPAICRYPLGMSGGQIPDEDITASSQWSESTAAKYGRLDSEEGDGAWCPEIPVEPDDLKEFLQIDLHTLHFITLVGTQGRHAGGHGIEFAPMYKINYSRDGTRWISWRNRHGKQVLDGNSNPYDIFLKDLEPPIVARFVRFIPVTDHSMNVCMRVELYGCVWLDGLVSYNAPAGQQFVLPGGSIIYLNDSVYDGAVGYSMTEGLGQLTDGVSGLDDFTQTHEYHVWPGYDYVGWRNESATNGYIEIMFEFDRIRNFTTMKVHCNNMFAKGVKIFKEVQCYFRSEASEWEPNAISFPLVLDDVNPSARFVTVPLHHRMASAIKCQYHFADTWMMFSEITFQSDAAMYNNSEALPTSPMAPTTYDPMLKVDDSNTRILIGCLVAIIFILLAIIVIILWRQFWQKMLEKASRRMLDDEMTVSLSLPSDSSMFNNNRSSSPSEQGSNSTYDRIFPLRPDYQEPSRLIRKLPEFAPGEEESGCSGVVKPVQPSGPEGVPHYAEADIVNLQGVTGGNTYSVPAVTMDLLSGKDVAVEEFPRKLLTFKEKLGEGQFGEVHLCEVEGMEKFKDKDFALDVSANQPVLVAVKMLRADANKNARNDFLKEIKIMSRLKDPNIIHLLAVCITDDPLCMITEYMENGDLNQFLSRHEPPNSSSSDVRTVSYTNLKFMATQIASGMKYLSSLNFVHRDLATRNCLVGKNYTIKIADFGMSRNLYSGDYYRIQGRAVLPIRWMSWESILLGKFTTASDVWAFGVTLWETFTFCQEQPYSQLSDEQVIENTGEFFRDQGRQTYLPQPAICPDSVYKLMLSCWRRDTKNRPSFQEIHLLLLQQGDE
B2: Speckle-type POZ protein (Homo sapiens), O43791 (parent)
chain: B1 chain
partner: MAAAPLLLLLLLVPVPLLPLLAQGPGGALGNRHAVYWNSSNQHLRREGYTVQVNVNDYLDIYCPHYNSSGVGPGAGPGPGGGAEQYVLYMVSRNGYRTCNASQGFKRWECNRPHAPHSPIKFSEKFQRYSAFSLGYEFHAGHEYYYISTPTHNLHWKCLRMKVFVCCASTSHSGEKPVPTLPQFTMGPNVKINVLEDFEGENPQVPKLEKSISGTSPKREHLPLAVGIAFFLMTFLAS
B3: Speckle-type POZ protein (Homo sapiens), O43791 (parent)
chain: B1 chain
partner: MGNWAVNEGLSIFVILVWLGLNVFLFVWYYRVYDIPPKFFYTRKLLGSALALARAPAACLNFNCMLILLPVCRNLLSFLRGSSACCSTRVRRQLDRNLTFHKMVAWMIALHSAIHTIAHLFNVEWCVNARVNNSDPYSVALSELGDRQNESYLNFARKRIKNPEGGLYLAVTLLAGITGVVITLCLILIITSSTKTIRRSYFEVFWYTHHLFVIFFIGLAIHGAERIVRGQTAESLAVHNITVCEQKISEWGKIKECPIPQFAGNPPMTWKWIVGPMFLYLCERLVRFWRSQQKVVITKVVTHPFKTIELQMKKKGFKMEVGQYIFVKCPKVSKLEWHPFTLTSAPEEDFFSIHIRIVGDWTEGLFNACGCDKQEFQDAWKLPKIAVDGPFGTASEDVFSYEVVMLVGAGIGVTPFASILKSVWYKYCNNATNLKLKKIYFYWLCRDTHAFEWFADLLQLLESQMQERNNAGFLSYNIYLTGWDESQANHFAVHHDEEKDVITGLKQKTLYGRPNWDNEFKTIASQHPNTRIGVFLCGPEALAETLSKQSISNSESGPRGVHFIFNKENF

Variants of: B1
Details: with ddr2_human DDR2, Q16832

Variant | effect of a mutation on the interaction
MSRVPSPPPPAEMSSGPVAESWCYTQIKVVKFSYMWTINNFSFCREEMGEVIKSSTFSSGANDKLKWCLRVNPKGLDEESKDYLSLYLLLVSCPKSEVRAKFKFSILNAKGEETKAMESQRAYRFVQGKDWGLKKFIRRDFLLDEANGLLPDDKLTLFCEVSVVQDSVNISGQNTMNMVKVPECRLADELGGLWENSRFTDCCLCVAGQEFQAHKAILAARSPVFSAMFEHEMEESKKNRVEINDVEPEVFKEMMCFIYTGKAPNLDKMADDLLAAADKYALERLKVMCEDALCSNLSVENAAEILILADLHSADQLKTQAVDFINYHASDVLETSGWKSMVVSHPHLVAEAYRSLASAQCPFLGPPRKRLKQS [F133L] | with no effect

Variants of: B1
Details: with ddr2_human DDR2, Q16832
Remark: another data set of the same source

Variant | effect of a mutation on the interaction
MSRVPSPPPPAEMSSGPVAESWCYTQIKVVKFSYMWTINNFSFCREEMGEVIKSSTFSSGANDKLKWCLRVNPKGLDEESKDYLSLYLLLVSCPKSEVRAKFKFSILNAKGEETKAMESQRAYRFVQGKDWGVKKFIRRDFLLDEANGLLPDDKLTLFCEVSVVQDSVNISGQNTMNMVKVPECRLADELGGLWENSRFTDCCLCVAGQEFQAHKAILAARSPVFSAMFEHEMEESKKNRVEINDVEPEVFKEMMCFIYTGKAPNLDKMADDLLAAADKYALERLKVMCEDALCSNLSVENAAEILILADLHSADQLKTQAVDFINYHASDVLETSGWKSMVVSHPHLVAEAYRSLASAQCPFLGPPRKRLKQS [F133V] | with no effect

Variants of: B1
Details: with ddr2_human DDR2, Q16832
Remark: another data set of the same source

Variant | effect of a mutation on the interaction
MSRVPSPPPPAEMSSGPVAESWCYTQIKVVKFSYMWTINNFSFCREEMGEVIKSSTFSSGANDKLKWCLRVNPKGLDEESKDYLSLCLLLVSCPKSEVRAKFKFSILNAKGEETKAMESQRAYRFVQGKDWGFKKFIRRDFLLDEANGLLPDDKLTLFCEVSVVQDSVNISGQNTMNMVKVPECRLADELGGLWENSRFTDCCLCVAGQEFQAHKAILAARSPVFSAMFEHEMEESKKNRVEINDVEPEVFKEMMCFIYTGKAPNLDKMADDLLAAADKYALERLKVMCEDALCSNLSVENAAEILILADLHSADQLKTQAVDFINYHASDVLETSGWKSMVVSHPHLVAEAYRSLASAQCPFLGPPRKRLKQS [Y87C] | with no effect

Variants of: B2
Details: with efna3_human EFNA3, P52797

Variant | effect of a mutation on the interaction
MSRVPSPPPPAEMSSGPVAESWCYTQIKVVKFSYMWTINNFSFCREEMGEVIKSSTFSSGANDKLKWCLRVNPKGLDEESKDYLSLYLLLVSCPKSEVRAKCKFSILNAKGEETKAMESQRAYRFVQGKDWGFKKFIRRDFLLDEANGLLPDDKLTLFCEVSVVQDSVNISGQNTMNMVKVPECRLADELGGLWENSRFTDCCLCVAGQEFQAHKAILAARSPVFSAMFEHEMEESKKNRVEINDVEPEVFKEMMCFIYTGKAPNLDKMADDLLAAADKYALERLKVMCEDALCSNLSVENAAEILILADLHSADQLKTQAVDFINYHASDVLETSGWKSMVVSHPHLVAEAYRSLASAQCPFLGPPRKRLKQS [F102C] | with no effect

Variants of: B3
Details: with cy24b_human CYBB

Variant | effect of a mutation on the interaction
MSRVPSPPPPAEMSSGPVAESWCYTQIKVVKFSYMWTINNFSFCREEMGEVIKSSTFSSGANDKLKWCLRVNPKGLDEESKDYLSLYLLLVSCPKSEVRAKFKFSILNAKGEETKAMESQRAYRFVQGKDWGVKKFIRRDFLLDEANGLLPDDKLTLFCEVSVVQDSVNISGQNTMNMVKVPECRLADELGGLWENSRFTDCCLCVAGQEFQAHKAILAARSPVFSAMFEHEMEESKKNRVEINDVEPEVFKEMMCFIYTGKAPNLDKMADDLLAAADKYALERLKVMCEDALCSNLSVENAAEILILADLHSADQLKTQAVDFINYHASDVLETSGWKSMVVSHPHLVAEAYRSLASAQCPFLGPPRKRLKQS [F133V] | with no effect

Variants of: B3
Details: with cy24b_human CYBB
Remark: another data set of the same source

Variant | effect of a mutation on the interaction
MSRVPSPPPPAEMSSGPVAESWCYTQIKVVKFSYMWTINNFSFCREEMGEVIKSSTFSSGANDKLKWCLRVNPKGLDEESKDYLSLYLLLVSCPKSEVRAKFKFSILNAKGEETKAMESQRAYRFVQGKDWGLKKFIRRDFLLDEANGLLPDDKLTLFCEVSVVQDSVNISGQNTMNMVKVPECRLADELGGLWENSRFTDCCLCVAGQEFQAHKAILAARSPVFSAMFEHEMEESKKNRVEINDVEPEVFKEMMCFIYTGKAPNLDKMADDLLAAADKYALERLKVMCEDALCSNLSVENAAEILILADLHSADQLKTQAVDFINYHASDVLETSGWKSMVVSHPHLVAEAYRSLASAQCPFLGPPRKRLKQS [F133L] | with no effect

Variants of: B3
Details: with cy24b_human CYBB
Remark: another data set of the same source

Variant | effect of a mutation on the interaction
MSRVPSPPPPAEMSSGPVAESWCYTQIKVVKFSYMWTINNFSFCREEMGEVIKSSTFSSGANDKLKWCLRVNPKGLDEESKDYLSLYLLLVSCPKSEVRAKCKFSILNAKGEETKAMESQRAYRFVQGKDWGFKKFIRRDFLLDEANGLLPDDKLTLFCEVSVVQDSVNISGQNTMNMVKVPECRLADELGGLWENSRFTDCCLCVAGQEFQAHKAILAARSPVFSAMFEHEMEESKKNRVEINDVEPEVFKEMMCFIYTGKAPNLDKMADDLLAAADKYALERLKVMCEDALCSNLSVENAAEILILADLHSADQLKTQAVDFINYHASDVLETSGWKSMVVSHPHLVAEAYRSLASAQCPFLGPPRKRLKQS [F102C] | with no effect

Variants of: B3
Details: with cy24b_human CYBB
Remark: another data set of the same source

Variant | effect of a mutation on the interaction
MSRVPSPPPPAEMSSGPVAESWCYTQIKVVKFSYMWTINNFSFCREEMGEVIKSSTFSSGANDKLKWCLRVNPKGLDEESKDYLSLCLLLVSCPKSEVRAKFKFSILNAKGEETKAMESQRAYRFVQGKDWGFKKFIRRDFLLDEANGLLPDDKLTLFCEVSVVQDSVNISGQNTMNMVKVPECRLADELGGLWENSRFTDCCLCVAGQEFQAHKAILAARSPVFSAMFEHEMEESKKNRVEINDVEPEVFKEMMCFIYTGKAPNLDKMADDLLAAADKYALERLKVMCEDALCSNLSVENAAEILILADLHSADQLKTQAVDFINYHASDVLETSGWKSMVVSHPHLVAEAYRSLASAQCPFLGPPRKRLKQS [Y87C] | with no effect
